Columns and labels:
[1] = target: β2-adrenergic receptor, construct PN1 (monomeric receptor) (UniProt P07550); assay: BLI; FLAG-tagged β2AR (monomer or AP-bound dimer) captured with 10 μM Iso on SA tips by biotinylated anti-FLAG M1 Fab; Gs 30 nM to 10 μM with 10 μM GDP and 0.1% BSA in NH buffer, 0.01% LMNG, 0.001% CHS; 30°C; KD from equilibrium responses
[2] = target: β2-adrenergic receptor, construct PN1 (monomeric receptor) (UniProt P07550); assay: BLI; as a16, monomeric β2AR with 10 μM AP
[3] = target: AP-7-168-bound β2AR dimer (construct PN1) (UniProt P07550); assay: SEC; AP-bound dimer with nucleotide-free Gs; peak fractions on SDS-PAGE, ratio of β2AR to Gα estimated on gels

Kd [1]: 0.96 µM | Kd [2]: 1.7 µM | stoichiometry N [3]: 2 β2AR per Gα
Substance: heterotrimeric Gs (Gαsβ1γ2) (from UniProt P63092 1-394; P62873 1-340; P59768 1-71) (complex)
